Laboratory results from article PMC8794802.

Key:
Pus7 delta ID-I = biological target: T1, Pus7 delta ID-I (Saccharomyces cerevisiae, UniProt Q08647 1-74+216-676, internal_change); test: EMSA
T1 sequence: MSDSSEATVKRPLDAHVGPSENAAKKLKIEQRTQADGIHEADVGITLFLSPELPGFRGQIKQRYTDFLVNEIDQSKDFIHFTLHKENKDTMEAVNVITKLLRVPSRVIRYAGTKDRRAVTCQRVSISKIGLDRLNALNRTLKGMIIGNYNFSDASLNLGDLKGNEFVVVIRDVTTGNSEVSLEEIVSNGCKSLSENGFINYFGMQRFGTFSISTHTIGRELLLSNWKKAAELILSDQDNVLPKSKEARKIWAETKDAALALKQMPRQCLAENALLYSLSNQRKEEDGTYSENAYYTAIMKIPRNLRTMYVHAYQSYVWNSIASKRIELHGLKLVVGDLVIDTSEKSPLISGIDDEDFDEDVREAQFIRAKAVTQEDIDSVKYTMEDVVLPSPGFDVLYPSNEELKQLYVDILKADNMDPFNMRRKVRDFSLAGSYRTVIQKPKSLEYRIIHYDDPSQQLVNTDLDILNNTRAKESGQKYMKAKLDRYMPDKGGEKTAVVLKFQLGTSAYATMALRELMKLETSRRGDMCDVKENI

Pus7 WT = biological target: T2, Pus7 WT (Saccharomyces cerevisiae, UniProt Q08647 1-676); test: EMSA
T2 sequence: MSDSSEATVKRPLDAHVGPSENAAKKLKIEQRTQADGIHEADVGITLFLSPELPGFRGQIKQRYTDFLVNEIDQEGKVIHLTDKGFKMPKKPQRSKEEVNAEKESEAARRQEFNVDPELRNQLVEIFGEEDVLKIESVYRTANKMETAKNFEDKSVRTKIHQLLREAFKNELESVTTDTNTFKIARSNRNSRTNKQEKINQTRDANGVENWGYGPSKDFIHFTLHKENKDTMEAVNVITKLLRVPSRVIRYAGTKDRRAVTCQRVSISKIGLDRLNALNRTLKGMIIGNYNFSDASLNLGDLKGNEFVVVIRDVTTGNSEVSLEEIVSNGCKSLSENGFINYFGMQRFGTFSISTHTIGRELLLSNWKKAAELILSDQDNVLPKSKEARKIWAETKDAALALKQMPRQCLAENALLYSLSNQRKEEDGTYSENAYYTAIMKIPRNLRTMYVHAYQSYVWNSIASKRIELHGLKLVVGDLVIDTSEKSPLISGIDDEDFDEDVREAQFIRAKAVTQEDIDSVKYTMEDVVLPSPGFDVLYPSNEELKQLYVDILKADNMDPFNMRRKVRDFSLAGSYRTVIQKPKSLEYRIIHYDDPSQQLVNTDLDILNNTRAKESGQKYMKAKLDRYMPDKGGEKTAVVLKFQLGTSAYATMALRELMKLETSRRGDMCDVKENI

B1: Psi-modified CDC8 (ssRNA)
RNA: GUCAAUCACGAUUGUAGACGUUACUAAUAAGGGCAUUCAGGAAGUUGAAGCGCUUAUUUGG
modifications: pseudouridine at the UGUAG target U (U15)
binding signal (Pus7 delta ID-I): 8 fold weaker than D256A/delta ID-I on unmodified CDC8 | Kd (Pus7 WT): 75 ± 15 nM
